Measured values published in article PMC10783494, “A conserved protein inhibitor brings under check the activity of RNase E in cyanobacteria”.

Legend:
[1] = target: RneN396, the catalytic core of Anabaena RNase E (1-396 aa) (Anabaena PCC 7120); assay: native gel or EMSA; RneN396, RebA and their mixture incubated for 30 min and separated on a native gel; the band of the complex excised and analysed by SDS-PAGE beside defined molar ratios, bands quantified with ImageJ
[2] = target: RneN396, the catalytic core of Anabaena RNase E (1-396 aa) (Anabaena PCC 7120); assay: SPR; Biacore, 25°C, PBS pH 7.4; RneN396 (2 uM) immobilized on a streptavidin-coated sensor chip; RebA injected at 0-1000 nM; steady-state affinity
[3] = target: RneN412, the catalytic region of Anabaena RNase E (1-412 aa) (Anabaena PCC 7120)
[4] = target: T1, RneN396, the catalytic core of Anabaena RNase E (1-396 aa) (Anabaena PCC 7120); assay: BLI
T1 chain: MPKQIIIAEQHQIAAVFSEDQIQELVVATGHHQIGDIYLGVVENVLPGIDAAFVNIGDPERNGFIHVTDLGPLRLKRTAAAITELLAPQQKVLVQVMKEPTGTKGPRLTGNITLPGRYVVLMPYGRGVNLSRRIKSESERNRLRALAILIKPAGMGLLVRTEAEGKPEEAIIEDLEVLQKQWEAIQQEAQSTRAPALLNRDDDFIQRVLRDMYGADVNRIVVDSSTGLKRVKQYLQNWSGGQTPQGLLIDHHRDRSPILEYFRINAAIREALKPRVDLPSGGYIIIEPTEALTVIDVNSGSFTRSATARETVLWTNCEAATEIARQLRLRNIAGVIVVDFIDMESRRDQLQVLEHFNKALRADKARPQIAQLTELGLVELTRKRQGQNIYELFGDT

[5] = target: RebA (Anabaena PCC 7120, UniProt A0ABR7ZDZ7 1-423); assay: EMSA; RebA up to 50-fold molar excess; 2 mM EDTA; 20 mM Tris-HCl pH 8.0, 200 mM NaCl, 0.1 mM DTT, 2 mM EDTA, 5% glycerol, 1 mg/ml BSA; 30 min at 30 C; 5% native PAGE at 4 C; conditions: protein: recombinant; tags: N-terminal Strep tag; label: 3' FAM

Question: For “full-length RebA bearing an N-terminal Strep tag (recombinant) (natural protein)”, which stoichiometry N [1] is on record?
Answer: The stoichiometry N was 1 RneN396:RebA.

Question: What about the Kd [2] of the same molecule?
Answer: Its Kd is 10.3 nM.

Question: And the cleavage of 5′ p-LU13-FAM by RneN412 (0.4 nM) with increasing RebA: ratio of RebA to RneN412 for half-inhibition (RebA:RneN412 ratio) [3]?
Answer: Its cleavage of 5′ p-LU13-FAM by RneN412 (0.4 nM) with increasing RebA: ratio of RebA to RneN412 for half-inhibition (RebA:RneN412 ratio) is 1.

Question: And the cleavage of 5′ p-LU13-FAM by RneN412 with increasing RebA (up to a RebA:RneN412 ratio of 4:1): drop of activity [3]?
Answer: Its cleavage of 5′ p-LU13-FAM by RneN412 with increasing RebA (up to a RebA:RneN412 ratio of 4:1): drop of activity is 90%.

B1: full-length RebA bearing an N-terminal Strep tag (recombinant) (natural protein)
chain: MRKLTNSDKQEILKLYRETAETTSTLAERYDVSNSTISRLLKSTLPEDEYEFLVSLKRAARTPEGRAQVSYDQIPFVGQPEEAPVISTQKVELPEPITKPEPSRVEDKPTPVIRKGRQAKPAPLPEENPQPLLAEEEKPTPVIRRGRQAKPAPLPEEEKPTPVIRKARQAKPEFFAEEEEKPTPVIRKARQAKPEFFAEEEEKPTPVIRRVRRRSASEEEDREPIARQLEIPVGKPQEIISVSSPSLEDETAEVTPMGYAPPQVIAEMLGEDLLDESEDLDDLEEDLDEDLDEEDYEDEEDDLEEARPLVTRRRFGDAAVQVLPLSVASLPKTCYLVIDRSSELITRPLKDFGDLGQIPSLETQQRTLPIFDNHRVAKRFSTKRDRVIKVPDSRMLHKARTHLQAKGITRLLIDGQVYSLSLV
Question: B1 was tested. Which koff [4] did it give?
Answer: The koff was 0.000112 s⁻¹.

B2: 5' p-LU13-FAM (ssRNA)
RNA: GAGACAGUAUUUG
modifications: 5' monophosphate
Question: Does B2 bind [5]?
Answer: Result: no binding
